The values below come from patent publication US6855515 (MERCK, dated 2005).

Common to all, as to test: Ki printed in running text; no assay described
The target of one assay is T1, caspase-7 (UniProt P55210 24-198; P55210 207-303, limits assumed).
T1 sequence (looked up) 1: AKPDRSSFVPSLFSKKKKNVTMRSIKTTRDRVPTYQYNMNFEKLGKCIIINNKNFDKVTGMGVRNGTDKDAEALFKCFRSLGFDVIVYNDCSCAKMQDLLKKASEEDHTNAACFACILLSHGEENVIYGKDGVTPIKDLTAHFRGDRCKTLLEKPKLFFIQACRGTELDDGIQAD
T1 sequence (looked up) 2: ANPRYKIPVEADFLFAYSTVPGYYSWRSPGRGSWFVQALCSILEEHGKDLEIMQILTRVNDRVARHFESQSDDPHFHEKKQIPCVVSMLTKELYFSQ

The target in a further assay is T2, caspase-1 (UniProt P29466 120-297; P29466 317-404, limits assumed).
T2 sequence (looked up) 1: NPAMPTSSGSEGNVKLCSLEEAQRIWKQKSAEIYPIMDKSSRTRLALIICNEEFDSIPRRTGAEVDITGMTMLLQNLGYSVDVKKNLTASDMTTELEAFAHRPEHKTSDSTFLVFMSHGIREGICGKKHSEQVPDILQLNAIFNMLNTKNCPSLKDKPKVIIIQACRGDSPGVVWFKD
T2 sequence (looked up) 2: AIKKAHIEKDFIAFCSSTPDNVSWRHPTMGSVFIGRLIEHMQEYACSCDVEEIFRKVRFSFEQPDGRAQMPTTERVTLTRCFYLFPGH

A further assay concerns the target T3, caspase-10 (UniProt Q92851 220-521, limits assumed).
T3 sequence (looked up): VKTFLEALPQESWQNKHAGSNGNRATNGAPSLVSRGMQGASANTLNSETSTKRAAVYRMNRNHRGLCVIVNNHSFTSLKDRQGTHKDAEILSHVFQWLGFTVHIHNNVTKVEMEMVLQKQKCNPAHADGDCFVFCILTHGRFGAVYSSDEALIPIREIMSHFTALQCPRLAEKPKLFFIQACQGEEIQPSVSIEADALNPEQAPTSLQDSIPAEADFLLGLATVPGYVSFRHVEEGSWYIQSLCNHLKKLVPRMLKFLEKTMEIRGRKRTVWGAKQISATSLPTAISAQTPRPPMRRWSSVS

The target of a further assay is T4, caspase-8 (UniProt Q14790 217-374; Q14790 385-479, limits assumed).
T4 construct: also called purified caspase-8
T4 sequence (Q14790 217-374 limits assumed, form in doubt, chain 1 of 2): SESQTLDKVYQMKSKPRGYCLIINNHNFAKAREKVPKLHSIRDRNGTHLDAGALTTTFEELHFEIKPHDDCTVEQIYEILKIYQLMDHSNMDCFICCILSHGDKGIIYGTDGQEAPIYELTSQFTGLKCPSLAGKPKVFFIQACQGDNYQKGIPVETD
T4 sequence (Q14790 385-479 limits assumed, form in doubt, chain 2 of 2): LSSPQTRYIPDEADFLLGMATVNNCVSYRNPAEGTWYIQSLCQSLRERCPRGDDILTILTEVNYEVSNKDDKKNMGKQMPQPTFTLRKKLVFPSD

Turning to Ac-DEVD-aldehyde [Ac-DEVD-CHO, N-(N-Ac-Asp-Glu-Val)-3-amino-4-oxobutanoic acid], the Ki with caspase-7 turned out to be 1 nM; with caspase-1, 17 nM; with caspase-10 it was 12 nM; in the assay with caspase-8, 0.92 nM.
On to Ac-YVAD-aldehyde [Ac-YVAD-CHO, N-(N-Ac-Tyr-Val-Ala)-3-amino-4-oxobutanoic acid], for which the Ki in the assay with caspase-1 amounted to 0.6 nM; with caspase-10 it was 408 nM.

For orientation: Ki means a dissociation constant, usually derived from enzyme kinetics or from competition with a known ligand. A low value points to a stronger hold on the target.
